In CN111138529A (INST MILITARY MEDICINE ACADEMY MILITARY SCIENCES PLA, dated 2020):

Biological target: T1, RESTV GP (RESTV, UniProt Q66799 34-651)
T1 sequence: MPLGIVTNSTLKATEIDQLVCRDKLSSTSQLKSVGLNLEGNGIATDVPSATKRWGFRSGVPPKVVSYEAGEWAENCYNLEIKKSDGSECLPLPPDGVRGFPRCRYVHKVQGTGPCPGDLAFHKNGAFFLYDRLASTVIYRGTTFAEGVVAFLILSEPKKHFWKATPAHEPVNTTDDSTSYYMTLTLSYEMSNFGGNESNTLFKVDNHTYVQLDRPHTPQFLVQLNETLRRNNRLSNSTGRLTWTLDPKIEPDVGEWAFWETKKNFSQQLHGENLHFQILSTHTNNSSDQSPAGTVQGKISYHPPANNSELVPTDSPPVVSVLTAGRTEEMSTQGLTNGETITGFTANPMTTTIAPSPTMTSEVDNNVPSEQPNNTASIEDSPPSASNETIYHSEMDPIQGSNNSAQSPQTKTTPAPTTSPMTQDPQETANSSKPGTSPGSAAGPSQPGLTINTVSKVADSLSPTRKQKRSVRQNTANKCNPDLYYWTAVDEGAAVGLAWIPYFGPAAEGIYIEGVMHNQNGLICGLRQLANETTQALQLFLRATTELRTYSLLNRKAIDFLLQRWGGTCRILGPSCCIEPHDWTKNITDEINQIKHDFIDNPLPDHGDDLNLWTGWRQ
Assay: ELISA, coated GP 1μg/mL

B1: 单克隆抗体5E1 (antibody, V domains shown)
VH: EVQLVESGGGVVQSGRSLRLSCAASGFTFSNYGMHWVRRAPGKGLEWVAVISYDGSIKYYADAVQGRFTISRDNSKNTLYLQMNSVRAEDRAVYYCAKGSRVVATLNFFDLWGRGTLVTVSS
VL: AIRMTQSPSSLSASVGDRVTITCRASQDIRNFLAWYQQKPEKAPKLLVYTASRRESGVPPRLSGSGSGTEYTLTISSLQPEDFATYYCQQYYSTPPTFGQGTKVDIKT
  binding result: no binding
